Measured values taken from the Immune Epitope Database (IEDB).

How the values were obtained:
Assay in all cases: IEDB peptide-MHC binding, purified MHC/competitive/radioactivity; filed as Kd, often an IC50 or EC50 that approximates it; ≥ and ≤ were set here for values at or beyond the usual limits of such assays
HLA-A*33:01 = target: HLA-A*33:01
HLA-A*11:01 = target: HLA-A*11:01
HLA-A*68:01 = target: HLA-A*68:01
HLA-A*03:01 = target: HLA-A*03:01
HLA-A*31:01 = target: HLA-A*31:01
[1] = source organism: Vaccinia virus WR
[2] = source organism: Dengue virus 4 Dominica/814669/1981
[3] = source organism: Dengue virus 1 Brazil/97-11/1997
[4] = source organism: SARS coronavirus Tor2
[5] = source organism: Lymphocytic choriomeningitis virus (strain Armstrong)
[6] = source organism: Lassa virus GA391
[7] = source organism: Dengue virus 2 Jamaica/1409/1983
[8] = source organism: Mammarenavirus choriomeningitidis
[9] = source organism: Lassa virus Josiah
[10] = source organism: Dengue virus 3 Martinique/1243/1999

## LIVSLCPTKK
HLA-A*33:01; [1]
  Kd: ≥ 70000 nM
HLA-A*11:01; [1]
  Kd: 56.9 nM
HLA-A*68:01; [1]
  Kd: 350 nM
HLA-A*03:01; [1]
  Kd: 226 nM
HLA-A*31:01; [1]
  Kd: 11600 nM

## LLDSIKMIY
HLA-A*33:01; [1]
  Kd: ≥ 48600 nM
HLA-A*11:01; [1]
  Kd: 17800 nM
HLA-A*68:01; [1]
  Kd: 722 nM
HLA-A*03:01; [1]
  Kd: 4730 nM
HLA-A*31:01; [1]
  Kd: 3350 nM

## LMIVAKHER
HLA-A*31:01; [2]
  Kd: 49.8 nM

## LMTLMKGASR
HLA-A*31:01; [2]
  Kd: 72.6 nM

## LSKSEFNTYK
HLA-A*11:01; [3]
  Kd: 557 nM

## LSTLNFNNLR
HLA-A*33:01; [1]
  Kd: 1530 nM
HLA-A*11:01; [1]
  Kd: 207 nM
HLA-A*68:01; [1]
  Kd: 12 nM
HLA-A*03:01; [1]
  Kd: 3740 nM
HLA-A*31:01; [1]
  Kd: 36.8 nM

## LVTFKTAHAK
HLA-A*11:01; [3]
  Kd: 478 nM
HLA-A*03:01; [3]
  Kd: 26.2 nM

## MIKNLTQLFK
HLA-A*33:01; [1]
  Kd: 318 nM
HLA-A*11:01; [1]
  Kd: 0.762 nM
HLA-A*68:01; [1]
  Kd: 1.62 nM
HLA-A*03:01; [1]
  Kd: 0.828 nM
HLA-A*31:01; [1]
  Kd: 4.29 nM

## MINYYNEMSR
HLA-A*33:01; [1]
  Kd: 406 nM
HLA-A*11:01; [1]
  Kd: 53.3 nM
HLA-A*68:01; [1]
  Kd: 13.4 nM
HLA-A*03:01; [1]
  Kd: 143 nM
HLA-A*31:01; [1]
  Kd: 95.9 nM

## MSLYMAISPK
HLA-A*33:01; [4]
  Kd: 1870 nM
HLA-A*11:01; [4]
  Kd: 0.199 nM
HLA-A*68:01; [4]
  Kd: 10.7 nM
HLA-A*03:01; [4]
  Kd: 0.256 nM
HLA-A*31:01; [4]
  Kd: 69.4 nM

## MTSRMLLNR
HLA-A*33:01; [3]
  Kd: 2.47 nM
HLA-A*11:01; [3]
  Kd: 40.4 nM
HLA-A*68:01; [3]
  Kd: 54.6 nM
HLA-A*31:01; [3]
  Kd: ≥ 23600 nM

## MWQLMYFHRR
HLA-A*33:01; [3]
  Kd: 11.3 nM
HLA-A*31:01; [3]
  Kd: ≥ 25700 nM

## NFFVFIHMVR
HLA-A*33:01; [1]
  Kd: 7.99 nM
HLA-A*11:01; [1]
  Kd: 718 nM
HLA-A*68:01; [1]
  Kd: 0.996 nM
HLA-A*03:01; [1]
  Kd: 174 nM
HLA-A*31:01; [1]
  Kd: 18.6 nM

## NGQFIHFYR
HLA-A*33:01; [5]
  Kd: ≥ 50400 nM
HLA-A*11:01; [5]
  Kd: 2530 nM
HLA-A*68:01; [5]
  Kd: 13.9 nM
HLA-A*03:01; [5]
  Kd: 8350 nM
HLA-A*31:01; [5]
  Kd: 3.67 nM

## NIRLTDTEY
HLA-A*33:01; [1]
  Kd: ≥ 77700 nM
HLA-A*11:01; [1]
  Kd: ≥ 77900 nM
HLA-A*68:01; [1]
  Kd: ≥ 77700 nM
HLA-A*03:01; [1]
  Kd: ≥ 78000 nM
HLA-A*31:01; [1]
  Kd: ≥ 77900 nM

## NISIISIRPR
HLA-A*33:01; [1]
  Kd: 285 nM
HLA-A*11:01; [1]
  Kd: 866 nM
HLA-A*68:01; [1]
  Kd: 5.1 nM
HLA-A*03:01; [1]
  Kd: 2640 nM
HLA-A*31:01; [1]
  Kd: 49.6 nM

## NLDLFMSHVK
HLA-A*33:01; [1]
  Kd: 2880 nM
HLA-A*11:01; [1]
  Kd: 68.8 nM
HLA-A*68:01; [1]
  Kd: 852 nM
HLA-A*03:01; [1]
  Kd: 19.4 nM
HLA-A*31:01; [1]
  Kd: 7760 nM

## NTPVSMTYLY
HLA-A*33:01; [1]
  Kd: ≥ 70000 nM
HLA-A*11:01; [1]
  Kd: 1400 nM
HLA-A*68:01; [1]
  Kd: 415 nM
HLA-A*03:01; [1]
  Kd: ≥ 45500 nM
HLA-A*31:01; [1]
  Kd: ≥ 70000 nM

## NYSRYWYLNH
HLA-A*33:01; [6]
  Kd: 1360 nM
HLA-A*11:01; [6]
  Kd: ≥ 30800 nM
HLA-A*68:01; [6]
  Kd: ≥ 70100 nM
HLA-A*03:01; [6]
  Kd: 16200 nM
HLA-A*31:01; [6]
  Kd: 7960 nM

## PSILPSLIK
HLA-A*33:01; [1]
  Kd: ≥ 77700 nM
HLA-A*11:01; [1]
  Kd: 383 nM
HLA-A*68:01; [1]
  Kd: ≥ 40900 nM
HLA-A*03:01; [1]
  Kd: 1850 nM
HLA-A*31:01; [1]
  Kd: ≥ 36900 nM

## QILDNAAKY
HLA-A*33:01; [1]
  Kd: ≥ 77700 nM
HLA-A*11:01; [1]
  Kd: 8800 nM
HLA-A*68:01; [1]
  Kd: ≥ 77700 nM
HLA-A*03:01; [1]
  Kd: ≥ 78000 nM
HLA-A*31:01; [1]
  Kd: ≥ 77900 nM

## QILMKTANNY
HLA-A*33:01; [1]
  Kd: 8870 nM
HLA-A*11:01; [1]
  Kd: 879 nM
HLA-A*68:01; [1]
  Kd: 5020 nM
HLA-A*03:01; [1]
  Kd: 106 nM
HLA-A*31:01; [1]
  Kd: 2380 nM

## QQQQGQTVTK
HLA-A*33:01; [4]
  Kd: ≥ 70000 nM
HLA-A*11:01; [4]
  Kd: 492 nM
HLA-A*68:01; [4]
  Kd: 11300 nM
HLA-A*03:01; [4]
  Kd: 10200 nM
HLA-A*31:01; [4]
  Kd: ≥ 27800 nM

## RAFDIYNEK
HLA-A*33:01; [4]
  Kd: ≥ 77700 nM
HLA-A*11:01; [4]
  Kd: 3.58 nM
HLA-A*68:01; [4]
  Kd: 378 nM
HLA-A*03:01; [4]
  Kd: 10.8 nM
HLA-A*31:01; [4]
  Kd: 106 nM

## RFVKFNDYRK
HLA-A*33:01; [1]
  Kd: 1830 nM
HLA-A*11:01; [1]
  Kd: 429 nM
HLA-A*68:01; [1]
  Kd: 51.1 nM
HLA-A*03:01; [1]
  Kd: 516 nM
HLA-A*31:01; [1]
  Kd: 37.3 nM

## RLQMAGVEVR
HLA-A*33:01; [1]
  Kd: 4950 nM
HLA-A*11:01; [1]
  Kd: 14700 nM
HLA-A*68:01; [1]
  Kd: 910 nM
HLA-A*03:01; [1]
  Kd: 1480 nM
HLA-A*31:01; [1]
  Kd: 118 nM

## RSCTLPPLR
HLA-A*31:01; [7]
  Kd: 4.6 nM

## RSNAILHNIY
HLA-A*33:01; [1]
  Kd: ≥ 70000 nM
HLA-A*11:01; [1]
  Kd: 1360 nM
HLA-A*68:01; [1]
  Kd: 1030 nM
HLA-A*03:01; [1]
  Kd: 3720 nM
HLA-A*31:01; [1]
  Kd: 619 nM

## RSTAIKVTK
HLA-A*33:01; [1]
  Kd: 11200 nM
HLA-A*11:01; [1]
  Kd: 6.77 nM
HLA-A*68:01; [1]
  Kd: 13.9 nM
HLA-A*03:01; [1]
  Kd: 214 nM
HLA-A*31:01; [1]
  Kd: 1.26 nM

## RVIDPRRCMK
HLA-A*31:01; [7]
  Kd: 4.4 nM

## RVSTVQQLTK
HLA-A*11:01; [7]
  Kd: 204 nM
HLA-A*03:01; [7]
  Kd: 17.5 nM

## SAFNKKHFDH
HLA-A*33:01; [8]
  Kd: ≥ 28700 nM
HLA-A*11:01; [8]
  Kd: 1250 nM
HLA-A*68:01; [8]
  Kd: ≥ 36600 nM
HLA-A*03:01; [8]
  Kd: ≥ 22300 nM
HLA-A*31:01; [8]
  Kd: 12500 nM

## SFGGASCCLY
HLA-A*33:01; [4]
  Kd: 3770 nM
HLA-A*11:01; [4]
  Kd: 140 nM
HLA-A*68:01; [4]
  Kd: 180 nM
HLA-A*03:01; [4]
  Kd: 302 nM
HLA-A*31:01; [4]
  Kd: 2500 nM

## SFYLISIFLH
HLA-A*33:01; [9]
  Kd: 281 nM
HLA-A*11:01; [9]
  Kd: 17100 nM
HLA-A*68:01; [9]
  Kd: 3240 nM
HLA-A*03:01; [9]
  Kd: 1020 nM
HLA-A*31:01; [9]
  Kd: 160 nM

## SLRPQPTELK
HLA-A*03:01; [7]
  Kd: 3.01 nM

## SLRTTTVTGK
HLA-A*03:01; [3]
  Kd: 6.38 nM

## SNMLSIINK
HLA-A*11:01; [10]
  Kd: 116 nM

## SQILPDPLK
HLA-A*33:01; [4]
  Kd: ≥ 55900 nM
HLA-A*11:01; [4]
  Kd: 4550 nM
HLA-A*68:01; [4]
  Kd: ≥ 50400 nM
HLA-A*03:01; [4]
  Kd: 17400 nM
HLA-A*31:01; [4]
  Kd: ≥ 25300 nM

## SSNVANYQK
HLA-A*33:01; [4]
  Kd: ≥ 77700 nM
HLA-A*68:01; [4]
  Kd: 54.8 nM
HLA-A*31:01; [4]
  Kd: 4040 nM

## TTLWEGSPGK
HLA-A*11:01; [3]
  Kd: 85 nM

## TTRMENLLWK
HLA-A*11:01; [10]
  Kd: 103 nM
HLA-A*03:01; [10]
  Kd: 102 nM

## TWMSAEGAWR
HLA-A*33:01; [10]
  Kd: 375 nM
HLA-A*31:01; [10]
  Kd: 248 nM

## VSILLSSLLK
HLA-A*11:01; [3]
  Kd: 49.2 nM
HLA-A*03:01; [3]
  Kd: 10.9 nM

## VSTPQGLVK
HLA-A*11:01; source organism: Dengue virus 4 Philippines/H241/1956
  Kd: 6890 nM

## YLALMATFK
HLA-A*03:01; [3]
  Kd: 7.13 nM
